Patent US6627200

Target: CD137 ligand expressed by the monocytes (human) (UniProt P41273)
Assay: cell-based or functional assay

Chain of UniProt P41273 (P41273 whole entry): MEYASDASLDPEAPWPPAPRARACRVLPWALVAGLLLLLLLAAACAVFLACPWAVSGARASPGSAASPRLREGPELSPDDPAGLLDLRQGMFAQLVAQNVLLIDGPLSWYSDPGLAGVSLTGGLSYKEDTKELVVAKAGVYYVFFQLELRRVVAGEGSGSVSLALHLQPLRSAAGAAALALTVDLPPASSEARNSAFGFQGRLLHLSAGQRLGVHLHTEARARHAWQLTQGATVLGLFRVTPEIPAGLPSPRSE

- 3H-thymidine incorporation of peripheral monocytes on immobilized CD137-Fc, against control cells: > 30 fold
Substance: Recombinant CD137-Fc protein, consisting of the extracellular domain of human CD137 and the constant domain of human immunoglobulin G1 (Fc) (from UniProt Q07011 18-186) (Fc fusion)
